{"source": "paper PMC3392929", "molecular_target": "Purified β-actin (Cytoskeleton) (UniProt P60709)", "assay": "SPR", "data": [{"substance": "GST-tagged Myo1c neck plus tail (domain or fragment)", "values": [{"measurement": "Kd", "result": "< 2000", "unit": "nM"}]}]}
